Source: publication PMC10491434, “SPOP targets the immune transcription factor IRF1 for proteasomal degradation” (eLife, 2023)

Target: T1, wild-type interferon regulatory factor 1 (wtIRF1) (human, UniProt P10914 1-325)
T1 sequence (looked up): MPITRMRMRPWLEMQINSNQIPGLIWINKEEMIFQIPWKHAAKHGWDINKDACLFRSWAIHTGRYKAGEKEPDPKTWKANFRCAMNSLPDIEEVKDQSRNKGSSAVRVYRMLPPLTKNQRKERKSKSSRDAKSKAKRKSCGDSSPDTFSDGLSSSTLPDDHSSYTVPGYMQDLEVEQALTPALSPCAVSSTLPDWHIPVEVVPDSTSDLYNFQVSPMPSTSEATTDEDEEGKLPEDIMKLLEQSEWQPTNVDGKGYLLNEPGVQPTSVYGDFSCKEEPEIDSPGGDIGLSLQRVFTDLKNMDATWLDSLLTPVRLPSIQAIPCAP
Experiment: cell-based or functional assay

B1: Ollas-tagged wild-type speckle type BTB/POZ protein (wtSPOP) (natural protein, UniProt O43791 1-374, looked up)
chain: MSRVPSPPPPAEMSSGPVAESWCYTQIKVVKFSYMWTINNFSFCREEMGEVIKSSTFSSGANDKLKWCLRVNPKGLDEESKDYLSLYLLLVSCPKSEVRAKFKFSILNAKGEETKAMESQRAYRFVQGKDWGFKKFIRRDFLLDEANGLLPDDKLTLFCEVSVVQDSVNISGQNTMNMVKVPECRLADELGGLWENSRFTDCCLCVAGQEFQAHKAILAARSPVFSAMFEHEMEESKKNRVEINDVEPEVFKEMMCFIYTGKAPNLDKMADDLLAAADKYALERLKVMCEDALCSNLSVENAAEILILADLHSADQLKTQAVDFINYHASDVLETSGWKSMVVSHPHLVAEAYRSLASAQCPFLGPPRKRLKQS
fold decrease in IRF1-driven ISRE luciferase reporter activity in HEK-293T cells with SPOP co-expression (dual luciferase assay): 11 fold
